Numbering of substitutions follows the chain as printed.
T1: Trop-2-mFc (human, UniProt P09758 27-274)
T1 construct: Made in-house by 四川科伦博泰; Coated at 1 μg/ml on the ELISA plate; also called 配体Trop-2-mFc
T1 sequence (looked up): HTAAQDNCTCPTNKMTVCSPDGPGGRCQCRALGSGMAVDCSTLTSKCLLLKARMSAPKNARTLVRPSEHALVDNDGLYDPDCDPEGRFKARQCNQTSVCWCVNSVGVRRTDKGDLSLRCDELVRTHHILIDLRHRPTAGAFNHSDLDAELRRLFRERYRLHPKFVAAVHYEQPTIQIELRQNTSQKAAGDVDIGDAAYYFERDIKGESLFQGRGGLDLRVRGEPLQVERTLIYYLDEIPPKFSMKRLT

B1: 疏水性改造TROP-2抗体M1 (antibody, human IgG1, kappa, V domains shown)
VH: QVQLQQSGSELKKPGASVKVSCKASGYTFTNYGMNWVKQAPGQGLKWMGWINTDSGEPTYTDDFKGRFAFSLDTSVSTAYLQISSLKADDTAVYFCARGGFGSSYWYFDVWGQGSLVTVSS
VL: DIQLTQSPSSLSASVGDRVSITCKASQDVSSAVAWYQQKPGKAPKLLIYSASYRYTGVPDRFSGSGSGTDFTLTISSLQPEDFAVYYCQQHYSTPLTFGAGTKVEIKR
notes: Humanized anti-Trop-2 antibody derived from Sacituzumab by hydrophilic CDR mutations; expressed in CHO-S cells, purified on protein A
B2: Sacituzumab抗体 (antibody, V domains shown)
VH: B1 VH with D54Y, S55T
VL: B1 VL with S31I, S93I
B3: 疏水性改造TROP-2抗体M3 (antibody, human IgG1, kappa, V domains shown)
VH: B1 VH
VL: B1 VL with S31I
notes: as for B1
B4: 疏水性改造TROP-2抗体M2 (antibody, human IgG1, kappa, V domains shown)
VH: B1 VH
VL: B1 VL with S93I
notes: as for B1

Biological target: T1, Trop-2-mFc
Assay: ELISA, Trop-2-mFc coated at 1 μg/ml, detection with HRP-anti human IgG(H+L)

| Binder | EC50 [nM] |
| --- | --- |
| B1 | 9.91 |
| B2 | 13.1 |
| B3 | 10.8 |
| B4 | 13.9 |

From patent CN110903395A (SICHUAN KELUN BOTAI BIOMEDICAL CO LTD, dated 2020)
